Measured values from patent US20220363731A1 (LETO LABORATORIES, published 2022).
Substitutions are numbered along the chain they refer to. Names and notes keep the numbering of the source. Blank lines part the entries; values can stand above or below the binder they belong to.

Legend:
IL2Rβγ-Fc [1] = target: T1, IL2Rβγ-Fc (UniProt P14784 27-240; P31785 23-262, limits assumed); assay: BLI (Fortebio Octet RED96), IL2Rβγ-Fc loaded on ProA sensor, analyte 2.5-40 nM as labelled; R2 0.998
T1 construct: From Beijing Zhidao Biotechnology, loaded on ProA sensors; also called IL2Rβγ receptors; complex of β and γ receptor subunits; not shown: Fc
T1 sequence (looked up) 1: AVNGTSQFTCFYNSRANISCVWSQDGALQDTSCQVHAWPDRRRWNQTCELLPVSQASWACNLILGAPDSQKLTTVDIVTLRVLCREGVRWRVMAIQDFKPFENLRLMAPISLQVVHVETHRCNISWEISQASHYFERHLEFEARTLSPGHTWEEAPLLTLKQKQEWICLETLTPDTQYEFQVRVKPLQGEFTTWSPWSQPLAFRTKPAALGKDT
T1 sequence (looked up) 2: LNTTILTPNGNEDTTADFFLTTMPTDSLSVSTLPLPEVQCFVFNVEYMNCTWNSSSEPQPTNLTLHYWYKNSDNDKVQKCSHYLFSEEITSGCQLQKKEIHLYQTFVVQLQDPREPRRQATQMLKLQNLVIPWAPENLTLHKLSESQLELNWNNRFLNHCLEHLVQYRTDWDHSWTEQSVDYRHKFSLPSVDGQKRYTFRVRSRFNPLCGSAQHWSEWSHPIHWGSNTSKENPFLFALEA
Procedure: (§1) The buffer formulation was as follows: 10 mM HEPES, 150 mM sodium chloride, 3 mM EDTA, 0.1% BSA and 0.05% Tween 20. The ProA sensor was purchased from Pall Fortebio (Cat. No. #18-5010). The HISIK sensor was purchased from Pall Fortebio (Cat. No. #18-5120). The BLI equipment was Octet RED96 from Pall Fortebio. Data acquisition and analysis were carried out using software Data acquisition 11.0 and Data Analysis 11.0, respectively.
(§2) IL2Rβγ-Fc was diluted with the buffer solution to a concentration of 10 μg/mL, and then added to column 2 of the 96-well assay plate. The program was set to Loading, 600 s.
(§3) 8 ProA sensors were respectively placed in A-H of column 1 of the sensor holder. In the software Data acquisition 11.0, the detection conditions were set as follows. 1 Pre-wetting: Baseline, 60 s, Position: Column 1. 2 Cycle detection: column 2: loading, 600 s; column 4: Baseline 1, 60 s; columns 5-9: Association, 200 s; column 10: Dissociation, 600 s; column 11: neutralization; and column 12: regeneration.

IL2Rα-his = target: T2, IL2Rα-his (UniProt P01589 22-217, limits assumed); assay: BLI (Fortebio Octet RED96), IL2Rα-his loaded on HIS1K sensor, analyte at 100 nM
T2 construct: From Beijing Zhidao Biotechnology, loaded on HIS1K sensors; also called IL2Rα receptor; α receptor subunit; not shown: his tag
T2 sequence (looked up): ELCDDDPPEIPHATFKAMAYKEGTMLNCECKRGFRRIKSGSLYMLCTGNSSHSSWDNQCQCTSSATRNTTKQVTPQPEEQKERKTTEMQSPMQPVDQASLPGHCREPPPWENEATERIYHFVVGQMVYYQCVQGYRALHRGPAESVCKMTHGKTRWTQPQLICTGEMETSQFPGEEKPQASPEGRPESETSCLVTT
Procedure: as §1
IL2Rα-his was diluted with the buffer solution to a concentration of 10 μg/mL, and then added to column 3 of the 96-well assay plate. The program was set to Loading, 600 s.

IL2Rβγ-Fc [2] = target: T1, IL2Rβγ-Fc; assay: BLI (Fortebio Octet RED96), IL2Rβγ-Fc loaded on ProA sensor, analyte 1.25-40 nM; R2 0.9972
Procedure: as §2
(§4) They were added to columns 5-9 of the 96-well assay plate, respectively. The program was set to Association, 200 s. The buffers were added to columns 1, 4, 10 and 11 of the 96-well assay plate, and the glycine with pH 1.7 was added to column 12. The loading volume of the above samples or solutions was 200 μL.
as §3

IL2Rβγ-Fc [3] = target: T1, IL2Rβγ-Fc; assay: BLI (Fortebio Octet RED96), IL2Rβγ-Fc loaded on ProA sensor, analyte 2.5-40 nM as labelled; R2 0.9984
Procedure: as §1, §2, §3

IL2Rβγ-Fc [4] = target: T1, IL2Rβγ-Fc; assay: BLI (Fortebio Octet RED96), IL2Rβγ-Fc loaded on ProA sensor, analyte 1.25-40 nM; R2 0.9953
Procedure: as §2, §4, §3

B1: IL-2 Mutant 1, IL-2 (M39C, V69C, C125A) (ligand)
chain: APTSSSTKKTQLQLEHLLLDLQMILNGINNYKNPKLTRCLTFKFYMPKKATELKHLQCLEEELKPLEECLNLAQSKNFHLRPRDLISNINVIVLELKGSETTFMCEYADETATIVEFLNRWITFAQSIISTLT
notes: Designed to form an intramolecular disulfide bond between Cys39 and Cys69; not shown: HPC4 tag at the C-terminus
Kd (IL2Rβγ-Fc [1]): 0.56 nM

B3: IL-2 Mutant 3, IL-2 (F44C, P65C, C125A) (ligand)
chain: B1 chain with C39M, F44C, P65C, C69V
notes: Designed to form an intramolecular disulfide bond between Cys44 and Cys65; not shown: HPC4 tag at the C-terminus
Kd (IL2Rβγ-Fc [3]): 0.66 nM

Second part, the binder after the results:

binding result (IL2Rα-his): no binding (tested: 100 nM) | Kd (IL2Rβγ-Fc [2]): 0.268 nM
B2: IL-2 Mutant 4, IL-2 (F42C, V69C, C125A) (ligand)
chain: B1 chain with C39M, F42C
notes: Designed to form an intramolecular disulfide bond between Cys42 and Cys69; not shown: HPC4 tag at the C-terminus

binding result (IL2Rα-his): no binding (tested: 100 nM) | Kd (IL2Rβγ-Fc [4]): 0.675 nM
B4: IL-2 Mutant 2, IL-2 (F44C, E62C, C125A) (ligand)
chain: B1 chain with C39M, F44C, E62C, C69V
notes: Designed to form an intramolecular disulfide bond between Cys44 and Cys62; not shown: HPC4 tag at the C-terminus
